Biological target: TAP-tagged Lid1 (Apc4), subunit of the APC/C (S. pombe) (UniProt O42839)
Assay: co-IP; Apc4-TAP pulled down with IgG Dynabeads from extracts of cdc25-22 cells released from G2 into mitosis at 25°C, carbendazim added after 20 min, time points every 15 min; blots for Mad3p (anti-GFP) and Mad2p; lysis buffer 50 mM HEPES pH 7.5, 75 mM KCl, 0.1% TritonX-100; strains wild type, mad3-KEN1, mad3-KEN2, mad3-C9A, mad2-S92A, mad3-C9A mad2-S92A

Sequence of UniProt O42839 (O42839 whole entry): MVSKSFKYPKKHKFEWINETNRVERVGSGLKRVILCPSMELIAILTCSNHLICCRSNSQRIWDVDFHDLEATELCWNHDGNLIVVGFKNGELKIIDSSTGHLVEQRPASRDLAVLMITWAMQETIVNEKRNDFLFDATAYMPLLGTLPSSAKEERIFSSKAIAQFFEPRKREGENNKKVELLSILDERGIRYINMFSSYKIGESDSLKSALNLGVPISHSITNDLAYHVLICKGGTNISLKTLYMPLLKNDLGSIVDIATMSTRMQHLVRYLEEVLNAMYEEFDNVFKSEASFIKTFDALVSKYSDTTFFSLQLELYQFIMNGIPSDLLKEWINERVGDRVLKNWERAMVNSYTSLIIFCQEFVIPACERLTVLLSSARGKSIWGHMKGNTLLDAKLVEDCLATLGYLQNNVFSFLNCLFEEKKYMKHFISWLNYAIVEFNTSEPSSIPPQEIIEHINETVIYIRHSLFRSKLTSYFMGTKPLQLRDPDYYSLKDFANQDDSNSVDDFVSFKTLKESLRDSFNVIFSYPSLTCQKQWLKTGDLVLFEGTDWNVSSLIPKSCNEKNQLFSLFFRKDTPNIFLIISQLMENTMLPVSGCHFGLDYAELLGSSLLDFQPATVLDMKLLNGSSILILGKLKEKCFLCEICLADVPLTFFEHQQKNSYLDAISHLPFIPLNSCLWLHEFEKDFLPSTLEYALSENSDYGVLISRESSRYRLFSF

| level bound to the APC/C as percent of wild type (mad3-C9A mad2-S92A strain, 45 and 60 min) | MCC-APC/C level as percent of wild type, 60 min | Substance |
| --- | --- | --- |
| 20% |  | Mad3-C9A tagged with GFP (from UniProt O59767 1-310) (natural protein) |
|  | 65% | Mad3-KEN2 mutant tagged with GFP (from UniProt O59767 1-310) (natural protein) |
